Experimental data published in article PMC7835520.
Values belong to the substance of their own block, whether it stands above or below them.

Key:
Experiment in all cases: SEC; cleared, microfiltered serum-containing supernatant of transfected Bosc23 cells; Superdex 200 10/300 GL in PBS at 4°C; fractions TCA precipitated and immunoblotted with α-Shh or α-StrepII antibodies; total eluted protein set to 100%, monomeric (< 80 kDa) versus multimeric (> 80 kDa)
[1] = molecular target: ^HAShh^HA, Shh with HA tags in both terminal peptides (Mus musculus)
[2] = molecular target: Sonic hedgehog (Shh), untagged (Mus musculus)
[3] = molecular target: Shh^HA, Shh with an HA tag inserted into the C-terminal peptide (Mus musculus)
[4] = molecular target: Shh^Strep, Shh with a StrepII tag inserted into the C-terminal peptide (Mus musculus)

- percent of eluted protein < 80 kDa (monomeric) [1]: 56%
Substance: ^HAShh^HA, Shh with HA tags in both terminal peptides (ligand)

- percent of eluted protein < 80 kDa (monomeric) [2]: 15%
Substance: Sonic hedgehog (Shh), untagged (ligand)

- percent of eluted protein < 80 kDa (monomeric) [3]: 65%
Substance: Shh^HA, Shh with an HA tag inserted into the C-terminal peptide (ligand)

- percent of eluted protein < 80 kDa (monomeric) [4]: 80%
Substance: Shh^Strep, Shh with a StrepII tag inserted into the C-terminal peptide (ligand)
